As a reminder, the Kd is the concentration at which binding is half-saturated.

Data on six molecules can be found in article doi:10.1101/2022.06.15.495552, “A network of DZF proteins controls alternative splicing regulation and fidelity”.

In data set [1] the target is T1, ZFRlong;ILF2 (29-390) (human;human?, UniProt Q96KR1;Q12905 317-1074;29-390, |). The data set is described as follows: EMSA; 4 mM Mg2+; EMSA: 20 mM HEPES pH 7.5, 150 mM K acetate, 4 mM Mg acetate, 1 mM DTT, 0.5 uM nucleic acid, 1 h on ice; 8% native PAGE in 0.5x TBE at 4 C. The following applies: protein: recombinant;recombinant, tags: N-terminal His6;N-terminal His6, copies: 1;1, blunt. A general note: A gel shift assay detects complexes by their altered migration in electrophoresis.
T1 sequence (Q96KR1 317-1074, chain 1 of 2): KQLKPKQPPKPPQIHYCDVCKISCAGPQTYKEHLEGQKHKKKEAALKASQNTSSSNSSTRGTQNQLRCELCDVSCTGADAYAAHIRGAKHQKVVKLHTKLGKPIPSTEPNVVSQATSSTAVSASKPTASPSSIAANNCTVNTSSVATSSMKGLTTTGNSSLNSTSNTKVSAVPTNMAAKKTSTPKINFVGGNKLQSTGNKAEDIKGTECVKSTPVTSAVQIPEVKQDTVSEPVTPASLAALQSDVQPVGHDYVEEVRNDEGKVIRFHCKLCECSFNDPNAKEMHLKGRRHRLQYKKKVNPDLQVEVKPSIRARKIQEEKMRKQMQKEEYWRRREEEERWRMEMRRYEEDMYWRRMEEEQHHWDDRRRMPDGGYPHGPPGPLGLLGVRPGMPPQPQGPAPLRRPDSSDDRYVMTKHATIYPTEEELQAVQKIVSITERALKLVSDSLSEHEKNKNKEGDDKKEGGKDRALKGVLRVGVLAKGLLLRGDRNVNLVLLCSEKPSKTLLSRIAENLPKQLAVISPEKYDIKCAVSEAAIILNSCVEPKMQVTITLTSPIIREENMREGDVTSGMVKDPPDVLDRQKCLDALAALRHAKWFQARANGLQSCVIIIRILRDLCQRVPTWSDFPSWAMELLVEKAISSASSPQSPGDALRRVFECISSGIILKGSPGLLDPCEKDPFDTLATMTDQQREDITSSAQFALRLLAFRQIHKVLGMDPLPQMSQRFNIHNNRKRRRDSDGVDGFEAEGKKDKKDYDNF
T1 sequence (Q12905 29-390, chain 2 of 2): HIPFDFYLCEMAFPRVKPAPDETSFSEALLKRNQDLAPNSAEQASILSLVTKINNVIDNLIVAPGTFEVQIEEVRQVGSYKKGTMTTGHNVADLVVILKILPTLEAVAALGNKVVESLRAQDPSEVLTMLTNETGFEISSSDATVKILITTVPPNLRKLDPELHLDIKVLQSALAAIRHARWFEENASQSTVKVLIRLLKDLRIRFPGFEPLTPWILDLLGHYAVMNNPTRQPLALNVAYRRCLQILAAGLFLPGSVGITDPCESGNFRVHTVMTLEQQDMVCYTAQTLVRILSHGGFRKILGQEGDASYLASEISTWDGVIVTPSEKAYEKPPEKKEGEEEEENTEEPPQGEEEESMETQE

In data set [2] the target is T1, ZFRlong;ILF2 (29-390). As to the kind of experiment: EMSA; 4 mM Mg2+; affinity similar to 24-mer dsRNA; EMSA: 20 mM HEPES pH 7.5, 150 mM K acetate, 4 mM Mg acetate, 1 mM DTT, 0.5 uM nucleic acid, 1 h on ice; 8% native PAGE in 0.5x TBE at 4 C. Conditions: protein: recombinant;recombinant, tags: N-terminal His6;N-terminal His6, copies: 1;1, label: Cy5 on RNA strand (5' per Methods), RNA:DNA duplex.

Setting [3] is: label: Cy5 on strand 1 (5' per Methods).
The mark [4] stands for this setting: label: DY681 on strand 1 (5' per Methods).

B1: C-rich (GC-rich) 24-mer dsRNA, Zfr-RBNS1 (dsRNA)
RNA 1: AAUGACACCCAAAAUGACACCCAA
RNA 2: UUGGGUGUCAUUUUGGGUGUCAUU
B1: the Kd with ZFRlong;ILF2 (29-390) [1] (setting [3]) is around 300 nM.

B2: C-rich 24-mer RNA : G-rich DNA hybrid, Zfr-RBNS1 (DNA:RNA)
RNA: AAUGACACCCAAAAUGACACCCAA
DNA: TTGGGTGTCATGGGTGTCAT
With B2, in the data set with ZFRlong;ILF2 (29-390) [2] (printed DNA 4 nt short), the binding result is given as “binds”.

B3: C-rich (GC-rich) 12-mer dsRNA, Zfr-RBNS1 (dsRNA)
RNA 1: AAUGACACCCAA
RNA 2: UUGGGUGUCAUU
As to B3, in the data set with ZFRlong;ILF2 (29-390) [1] (setting [4]), the dissociation constant (Kd) was around 800 nM.

B4: U-rich (AU-rich) 24-mer dsRNA, Zfr-RBNS3 (dsRNA)
RNA 1: AAUGUUGUAAAAAAUGUUGUAAAA
RNA 2: UUUUACAACAUUUUUUACAACAUU
On to B4, for which the dissociation constant (Kd) with ZFRlong;ILF2 (29-390) [1] (setting [3]) is around 300 nM.

B5: U-rich 24-mer RNA : A-rich DNA hybrid, Zfr-RBNS3 (DNA:RNA)
RNA: AAUGUUGUAAAAAAUGUUGUAAAA
DNA: TTTTACAACATTTTTACAACATT
For the molecule B5, the binding result with ZFRlong;ILF2 (29-390) [2] (printed DNA 1 nt short) is “binds”.

B6: U-rich (AU-rich) 12-mer dsRNA, Zfr-RBNS3 (dsRNA)
RNA 1: AAUGUUGUAAAA
RNA 2: UUUUACAACAUU
On to B6, for which the Kd with ZFRlong;ILF2 (29-390) [1] (setting [4]) is around 800 nM.
